According to patent US10941182 (Amgen, dated 2021):
Starred links: 1 amine or outer side, 2 acyl side, 3 side chain; linkers in the order of their positions; H or OH if unused. Non-standard residues stand in square brackets, D forms with d. *: point of attachment. Oic = O=C(O)[C@@H]1C[C@@H]2CCCC[C@@H]2N1; Phe(4-Cl) = N[C@@H](Cc1ccc(Cl)cc1)C(=O)O; dPhe(4-Cl) = N[C@H](Cc1ccc(Cl)cc1)C(=O)O; γGlu = O=C(O)[C@H](CCC(=O)[*:2])N[*:1]; NMeR = CN[C@@H](CCCNC(=N)N)C(=O)O; Tridecanoyl = CCCCCCCCCCCCC(=O)*; hArg = N=C(N)NCCCC[C@H](N)C(=O)O; Cha = N[C@@H](CC1CCCCC1)C(=O)O; Tle = CC(C)(C)[C@H](N)C(=O)O; β3hP = O=C(O)C[C@@H]1CCCN1; Nle = CCCC[C@H](N)C(=O)O; Orn = NCCC[C@H](N)C(=O)O; Deg = CCC(N)(CC)C(=O)O; AEEA = NCCOCCOCC(=O)O; Aib = CC(C)(N)C(=O)O; BLeu = β-leucine

T1: human APJ receptor (human, UniProt P35414 1-380)
T1 sequence (looked up): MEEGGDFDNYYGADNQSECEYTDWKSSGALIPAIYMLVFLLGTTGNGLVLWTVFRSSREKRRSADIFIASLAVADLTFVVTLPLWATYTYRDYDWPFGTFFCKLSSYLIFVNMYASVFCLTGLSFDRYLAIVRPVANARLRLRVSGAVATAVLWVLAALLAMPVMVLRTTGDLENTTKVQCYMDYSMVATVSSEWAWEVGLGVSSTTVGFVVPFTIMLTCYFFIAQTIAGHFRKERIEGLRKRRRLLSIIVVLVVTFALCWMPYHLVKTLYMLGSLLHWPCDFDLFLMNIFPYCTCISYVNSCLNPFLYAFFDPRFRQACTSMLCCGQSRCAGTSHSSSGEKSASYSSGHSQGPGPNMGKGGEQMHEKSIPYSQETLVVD

T2: rat APJ receptor (rat, UniProt Q9JHG3 1-377)
T2 sequence (looked up): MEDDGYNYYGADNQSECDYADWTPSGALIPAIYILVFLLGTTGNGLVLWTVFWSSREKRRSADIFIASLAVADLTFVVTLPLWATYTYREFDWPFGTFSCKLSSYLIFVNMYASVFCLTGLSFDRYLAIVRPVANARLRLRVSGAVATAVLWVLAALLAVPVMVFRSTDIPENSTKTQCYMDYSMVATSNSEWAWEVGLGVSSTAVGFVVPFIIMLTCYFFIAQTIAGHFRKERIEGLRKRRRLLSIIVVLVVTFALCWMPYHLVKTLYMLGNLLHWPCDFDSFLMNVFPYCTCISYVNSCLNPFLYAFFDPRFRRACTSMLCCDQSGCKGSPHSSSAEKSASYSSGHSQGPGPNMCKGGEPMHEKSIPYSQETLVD

B1: Apelin polypeptide SEQ ID NO: 442 (peptide)
peptide: Tridecanoyl-[γGlu][AEEA][AEEA][Tle]RP[NMeR][Cha]SHKG[Oic][Nle]P[Phe(4-Cl)]-OH
SMILES: CCCCCCCCCCCCC(=O)N[C@@H](CCC(=O)NCCOCCOCC(=O)NCCOCCOCC(=O)N[C@H](C(=O)N[C@@H](CCCNC(=N)N)C(=O)N1CCC[C@H]1C(=O)N(C)[C@@H](CCCNC(=N)N)C(=O)N[C@@H](CC1CCCCC1)C(=O)N[C@@H](CO)C(=O)N[C@@H](Cc1c[nH]cn1)C(=O)N[C@@H](CCCCN)C(=O)NCC(=O)N1[C@H](C(=O)N[C@@H](CCCC)C(=O)N2CCC[C@H]2C(=O)N[C@@H](Cc2ccc(Cl)cc2)C(=O)O)C[C@@H]2CCCC[C@@H]21)C(C)(C)C)C(=O)O
B2: Apelin polypeptide SEQ ID NO: 292 (peptide)
peptide: Tridecanoyl-[γGlu][AEEA][AEEA][dL][hArg]P[NMeR][Cha]SHKG[Oic][Nle]P[dPhe(4-Cl)]-OH
SMILES: CCCCCCCCCCCCC(=O)N[C@@H](CCC(=O)NCCOCCOCC(=O)NCCOCCOCC(=O)N[C@H](CC(C)C)C(=O)N[C@@H](CCCCNC(=N)N)C(=O)N1CCC[C@H]1C(=O)N(C)[C@@H](CCCNC(=N)N)C(=O)N[C@@H](CC1CCCCC1)C(=O)N[C@@H](CO)C(=O)N[C@@H](Cc1c[nH]cn1)C(=O)N[C@@H](CCCCN)C(=O)NCC(=O)N1[C@H](C(=O)N[C@@H](CCCC)C(=O)N2CCC[C@H]2C(=O)N[C@H](Cc2ccc(Cl)cc2)C(=O)O)C[C@@H]2CCCC[C@@H]21)C(=O)O
B3: Apelin polypeptide SEQ ID NO: 307 (peptide)
peptide: Tridecanoyl-[γGlu][AEEA][AEEA][Orn]F[hArg][hArg][BLeu][hArg]P[hArg][Cha]SHKG[Oic][Nle]P[Phe(4-Cl)]-OH
B4: Apelin polypeptide SEQ ID NO: 297 (peptide)
peptide: Tridecanoyl-[γGlu][AEEA][AEEA][Orn]F[hArg][hArg]Q[NMeR]P[NMeR][Cha]SHKG[Oic][Nle]P[Phe(4-Cl)]-OH
SMILES: CCCCCCCCCCCCC(=O)N[C@@H](CCC(=O)NCCOCCOCC(=O)NCCOCCOCC(=O)N[C@@H](CCCN)C(=O)N[C@@H](Cc1ccccc1)C(=O)N[C@@H](CCCCNC(=N)N)C(=O)N[C@@H](CCCCNC(=N)N)C(=O)N[C@@H](CCC(N)=O)C(=O)N(C)[C@@H](CCCNC(=N)N)C(=O)N1CCC[C@H]1C(=O)N(C)[C@@H](CCCNC(=N)N)C(=O)N[C@@H](CC1CCCCC1)C(=O)N[C@@H](CO)C(=O)N[C@@H](Cc1c[nH]cn1)C(=O)N[C@@H](CCCCN)C(=O)NCC(=O)N1[C@H](C(=O)N[C@@H](CCCC)C(=O)N2CCC[C@H]2C(=O)N[C@@H](Cc2ccc(Cl)cc2)C(=O)O)C[C@@H]2CCCC[C@@H]21)C(=O)O
B5: Apelin polypeptide SEQ ID NO: 550 (peptide)
peptide: Tridecanoyl-[γGlu][AEEA][AEEA]Q[β3hP][NMeR][Cha]SHKG[Oic][Nle][Aib][Phe(4-Cl)]-OH
SMILES: CCCCCCCCCCCCC(=O)N[C@@H](CCC(=O)NCCOCCOCC(=O)NCCOCCOCC(=O)N[C@@H](CCC(N)=O)C(=O)N1CCC[C@H]1CC(=O)N(C)[C@@H](CCCNC(=N)N)C(=O)N[C@@H](CC1CCCCC1)C(=O)N[C@@H](CO)C(=O)N[C@@H](Cc1c[nH]cn1)C(=O)N[C@@H](CCCCN)C(=O)NCC(=O)N1[C@H](C(=O)N[C@@H](CCCC)C(=O)NC(C)(C)C(=O)N[C@@H](Cc2ccc(Cl)cc2)C(=O)O)C[C@@H]2CCCC[C@@H]21)C(=O)O
B6: Apelin polypeptide SEQ ID NO: 301 (peptide)
peptide: Tridecanoyl-[γGlu][AEEA][AEEA][dQ][hArg][β3hP][NMeR][Cha]SHKG[Oic][Nle]P[dPhe(4-Cl)]-OH
SMILES: CCCCCCCCCCCCC(=O)N[C@@H](CCC(=O)NCCOCCOCC(=O)NCCOCCOCC(=O)N[C@H](CCC(N)=O)C(=O)N[C@@H](CCCCNC(=N)N)C(=O)N1CCC[C@H]1CC(=O)N(C)[C@@H](CCCNC(=N)N)C(=O)N[C@@H](CC1CCCCC1)C(=O)N[C@@H](CO)C(=O)N[C@@H](Cc1c[nH]cn1)C(=O)N[C@@H](CCCCN)C(=O)NCC(=O)N1[C@H](C(=O)N[C@@H](CCCC)C(=O)N2CCC[C@H]2C(=O)N[C@H](Cc2ccc(Cl)cc2)C(=O)O)C[C@@H]2CCCC[C@@H]21)C(=O)O
B7: Apelin polypeptide SEQ ID NO: 455 (peptide)
peptide: Tridecanoyl-[γGlu][AEEA][AEEA][dQ][hArg][Deg][dR][Cha]SHKG[Oic][Nle]P[Phe(4-Cl)]-OH
SMILES: CCCCCCCCCCCCC(=O)N[C@@H](CCC(=O)NCCOCCOCC(=O)NCCOCCOCC(=O)N[C@H](CCC(N)=O)C(=O)N[C@@H](CCCCNC(=N)N)C(=O)NC(CC)(CC)C(=O)N[C@H](CCCNC(=N)N)C(=O)N[C@@H](CC1CCCCC1)C(=O)N[C@@H](CO)C(=O)N[C@@H](Cc1c[nH]cn1)C(=O)N[C@@H](CCCCN)C(=O)NCC(=O)N1[C@H](C(=O)N[C@@H](CCCC)C(=O)N2CCC[C@H]2C(=O)N[C@@H](Cc2ccc(Cl)cc2)C(=O)O)C[C@@H]2CCCC[C@@H]21)C(=O)O
B8: Apelin polypeptide SEQ ID NO: 486 (peptide)
peptide: Tridecanoyl-[γGlu][AEEA][AEEA][dQ][hArg][Oic][dR][Cha]SHKG[Oic][Nle]P[Phe(4-Cl)]-OH
SMILES: CCCCCCCCCCCCC(=O)N[C@@H](CCC(=O)NCCOCCOCC(=O)NCCOCCOCC(=O)N[C@H](CCC(N)=O)C(=O)N[C@@H](CCCCNC(=N)N)C(=O)N1[C@H](C(=O)N[C@H](CCCNC(=N)N)C(=O)N[C@@H](CC2CCCCC2)C(=O)N[C@@H](CO)C(=O)N[C@@H](Cc2c[nH]cn2)C(=O)N[C@@H](CCCCN)C(=O)NCC(=O)N2[C@H](C(=O)N[C@@H](CCCC)C(=O)N3CCC[C@H]3C(=O)N[C@@H](Cc3ccc(Cl)cc3)C(=O)O)C[C@@H]3CCCC[C@@H]32)C[C@@H]2CCCC[C@@H]21)C(=O)O
B9: Apelin polypeptide SEQ ID NO: 488 (peptide)
peptide: Tridecanoyl-[γGlu][AEEA][AEEA][dQ][hArg]P[hArg][Cha]SHKG[Oic][Nle]P[Phe(4-Cl)]-OH
SMILES: CCCCCCCCCCCCC(=O)N[C@@H](CCC(=O)NCCOCCOCC(=O)NCCOCCOCC(=O)N[C@H](CCC(N)=O)C(=O)N[C@@H](CCCCNC(=N)N)C(=O)N1CCC[C@H]1C(=O)N[C@@H](CCCCNC(=N)N)C(=O)N[C@@H](CC1CCCCC1)C(=O)N[C@@H](CO)C(=O)N[C@@H](Cc1c[nH]cn1)C(=O)N[C@@H](CCCCN)C(=O)NCC(=O)N1[C@H](C(=O)N[C@@H](CCCC)C(=O)N2CCC[C@H]2C(=O)N[C@@H](Cc2ccc(Cl)cc2)C(=O)O)C[C@@H]2CCCC[C@@H]21)C(=O)O
B10: Apelin polypeptide SEQ ID NO: 489 (peptide)
peptide: Tridecanoyl-[γGlu][AEEA][AEEA]Q[hArg]P[hArg][Cha]SHKG[Oic][Nle]P[Phe(4-Cl)]-OH
SMILES: CCCCCCCCCCCCC(=O)N[C@@H](CCC(=O)NCCOCCOCC(=O)NCCOCCOCC(=O)N[C@@H](CCC(N)=O)C(=O)N[C@@H](CCCCNC(=N)N)C(=O)N1CCC[C@H]1C(=O)N[C@@H](CCCCNC(=N)N)C(=O)N[C@@H](CC1CCCCC1)C(=O)N[C@@H](CO)C(=O)N[C@@H](Cc1c[nH]cn1)C(=O)N[C@@H](CCCCN)C(=O)NCC(=O)N1[C@H](C(=O)N[C@@H](CCCC)C(=O)N2CCC[C@H]2C(=O)N[C@@H](Cc2ccc(Cl)cc2)C(=O)O)C[C@@H]2CCCC[C@@H]21)C(=O)O
B11: Apelin polypeptide SEQ ID NO: 358 (peptide)
peptide: Tridecanoyl-[γGlu][AEEA][AEEA]Q[hArg]P[hArg]LSHKG[Oic][Nle]P[Phe(4-Cl)]-OH
SMILES: CCCCCCCCCCCCC(=O)N[C@@H](CCC(=O)NCCOCCOCC(=O)NCCOCCOCC(=O)N[C@@H](CCC(N)=O)C(=O)N[C@@H](CCCCNC(=N)N)C(=O)N1CCC[C@H]1C(=O)N[C@@H](CCCCNC(=N)N)C(=O)N[C@@H](CC(C)C)C(=O)N[C@@H](CO)C(=O)N[C@@H](Cc1c[nH]cn1)C(=O)N[C@@H](CCCCN)C(=O)NCC(=O)N1[C@H](C(=O)N[C@@H](CCCC)C(=O)N2CCC[C@H]2C(=O)N[C@@H](Cc2ccc(Cl)cc2)C(=O)O)C[C@@H]2CCCC[C@@H]21)C(=O)O

What follows are binders tested against T1, human APJ receptor (assay: cell-based or functional assay).

Binder | EC50 Human APJ Receptor (GTPγS assay)
B1 | 2 nM
B2 | 5.78 nM
B3 | 0.305 nM
B4 | 0.698 nM
B5 | 94.8 nM
B6 | 36 nM
B7 | 2.48 nM
B8 | 1.79 nM
B9 | 0.198 nM
B10 | 0.601 nM
B11 | 0.285 nM

What follows are binders tested against T2, rat APJ receptor (assay: cell-based or functional assay).

Binder | EC50 Rat APJ Receptor (GTPγS assay)
B1 | 2.16 nM
B2 | 6.68 nM
B3 | 0.31 nM
B4 | 1.02 nM
B5 | 135 nM
B6 | 29 nM
B7 | 10.3 nM
B8 | 4.04 nM
B9 | 1.72 nM
B10 | 3.59 nM
B11 | 0.314 nM
